# According to patent publication US20090105152A1:
# Square brackets hold non-standard residues; d marks the D form. Primed or numbered codes have the meaning given here. Phe(βS-OH) = N[C@H](C(=O)O)[C@@H](O)c1ccccc1; Pro(trans-4-F) = O=C(O)[C@@H]1C[C@@H](F)CN1; Pic(3) = 3-piperidinecarboxylic acid; Arg(Me) = CNC(=N)NCCC[C@H](N)C(=O)O; Dap(CONH2) = NC(=O)NC[C@H](N)C(=O)O; cisHyp = O=C(O)[C@@H]1C[C@H](O)CN1; Hyp = O=C(O)[C@@H]1C[C@@H](O)CN1; d4Pal = N[C@H](Cc1ccncc1)C(=O)O; Pip = O=C(O)[C@@H]1CCCCN1; NMeA = CN[C@@H](C)C(=O)O; Thz = O=C(O)[C@@H]1CSCN1; Aze = O=C(O)[C@@H]1CCN1; Nva = CCC[C@H](N)C(=O)O; azaGly = NNC(=O)O
# Molecular target: human OT7T175 (metastin receptor) (human) (UniProt Q969F8)
# Sequence (Q969F8 whole entry L364H): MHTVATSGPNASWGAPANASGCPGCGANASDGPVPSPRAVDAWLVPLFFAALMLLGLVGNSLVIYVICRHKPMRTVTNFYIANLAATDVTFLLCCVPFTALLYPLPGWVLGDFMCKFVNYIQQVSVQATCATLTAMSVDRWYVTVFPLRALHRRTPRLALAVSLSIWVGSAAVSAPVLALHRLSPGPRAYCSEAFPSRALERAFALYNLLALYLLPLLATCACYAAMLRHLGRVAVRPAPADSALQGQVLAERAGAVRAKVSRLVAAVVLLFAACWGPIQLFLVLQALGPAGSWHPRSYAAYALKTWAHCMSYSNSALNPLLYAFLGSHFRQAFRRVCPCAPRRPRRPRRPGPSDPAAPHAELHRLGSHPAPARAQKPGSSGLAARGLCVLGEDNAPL
# Assay: cell-based or functional assay
row,Binder,intracellular Ca ion level-increasing activity [specific activity to Metastin (1-54)] (relative to Metastin (1-54))
1,"Ac-[dY][Pip]NTF[azaGly]L[Arg(Me)]W-NH2 (SMILES CNC(=N)NCCC[C@H](NC(=O)[C@H](CC(C)C)NC(=O)NNC(=O)[C@H](Cc1ccccc1)NC(=O)[C@@H](NC(=O)[C@H](CC(N)=O)NC(=O)[C@@H]1CCCCN1C(=O)[C@@H](Cc1ccc(O)cc1)NC(C)=O)[C@@H](C)O)C(=O)N[C@@H](Cc1c[nH]c2ccccc12)C(N)=O) [des(1)-Ac-[D-Tyr2,Pic(2)3,Thr5,AzaGly7,Arg(Me)9,Trp10]MS10]",1.1
2,"Ac-[dY][Aze]NTF[azaGly]L[Arg(Me)]W-NH2 (SMILES CNC(=N)NCCC[C@H](NC(=O)[C@H](CC(C)C)NC(=O)NNC(=O)[C@H](Cc1ccccc1)NC(=O)[C@@H](NC(=O)[C@H](CC(N)=O)NC(=O)[C@@H]1CCN1C(=O)[C@@H](Cc1ccc(O)cc1)NC(C)=O)[C@@H](C)O)C(=O)N[C@@H](Cc1c[nH]c2ccccc12)C(N)=O) [des(1)-Ac-[D-Tyr2,Aze(2)3,Thr5,AzaGly7,Arg(Me)9,Trp10]MS10]",0.8
3,"{3‑(p-hydroxyphenyl)propionyl}-[Hyp]NTF[azaGly]L[Arg(Me)]W-NH2 [des(1-2)-3-(p-Hydroxyphenyl)propionyl-[Hyp3,Thr5,AzaGly7,Arg(Me)9,Trp10]MS10]",1.1
4,"Ac-[dY][d4Pal][Dap(CONH2)]TF[azaGly]L[Arg(Me)]W-NH2 (SMILES CNC(=N)NCCC[C@H](NC(=O)[C@H](CC(C)C)NC(=O)NNC(=O)[C@H](Cc1ccccc1)NC(=O)[C@@H](NC(=O)[C@H](CNC(N)=O)NC(=O)[C@@H](Cc1ccncc1)NC(=O)[C@@H](Cc1ccc(O)cc1)NC(C)=O)[C@@H](C)O)C(=O)N[C@@H](Cc1c[nH]c2ccccc12)C(N)=O) [des(1)-Ac-[D-Tyr2,D-Pya(4)3,Alb4,Thr5,AzaGly7,Arg(Me)9,Trp10]MS10]",2.6
5,"Ac-[dY][Hyp]NT[Phe(βS-OH)][azaGly]L[Arg(Me)]W-NH2 (SMILES CNC(=N)NCCC[C@H](NC(=O)[C@H](CC(C)C)NC(=O)NNC(=O)[C@@H](NC(=O)[C@@H](NC(=O)[C@H](CC(N)=O)NC(=O)[C@@H]1C[C@@H](O)CN1C(=O)[C@@H](Cc1ccc(O)cc1)NC(C)=O)[C@@H](C)O)[C@@H](O)c1ccccc1)C(=O)N[C@@H](Cc1c[nH]c2ccccc12)C(N)=O) [des(1)-Ac-[D-Tyr2,Hyp3,Thr5,erythro-Ser(3Phenyl)6,AzaGly7,Arg(Me)9,Trp10]MS10]",0.8
6,"Ac-[dY][Hyp][Nva]TF[azaGly]L[Arg(Me)]W-NH2 (SMILES CCC[C@H](NC(=O)[C@@H]1C[C@@H](O)CN1C(=O)[C@@H](Cc1ccc(O)cc1)NC(C)=O)C(=O)N[C@H](C(=O)N[C@@H](Cc1ccccc1)C(=O)NNC(=O)N[C@@H](CC(C)C)C(=O)N[C@@H](CCCNC(=N)NC)C(=O)N[C@@H](Cc1c[nH]c2ccccc12)C(N)=O)[C@@H](C)O) [des(1)-Ac-[D-Tyr2,Hyp3,Nva4,Thr5,AzaGly7,Arg(Me)9,Trp10]MS10]",1.2
7,"Ac-[dY][Hyp]NTF[azaGly]L[Arg(Me)]W-NH2 [des(1)-Ac-[D-Tyr2,Hyp3,Thr5,AzaGly7,Arg(Me)9,Trp10]MS10]",2

# Now from value to binder:
row,intracellular Ca ion level-increasing activity [specific activity to Metastin (1-54)] (relative to Metastin (1-54)),Binder
1,2.7,"Ac-[dY][NMeA]NTF[azaGly]L[Arg(Me)]W-NH2 (SMILES CNC(=N)NCCC[C@H](NC(=O)[C@H](CC(C)C)NC(=O)NNC(=O)[C@H](Cc1ccccc1)NC(=O)[C@@H](NC(=O)[C@H](CC(N)=O)NC(=O)[C@H](C)N(C)C(=O)[C@@H](Cc1ccc(O)cc1)NC(C)=O)[C@@H](C)O)C(=O)N[C@@H](Cc1c[nH]c2ccccc12)C(N)=O) [des(1)-Ac-[D-Tyr2,NMeAla3,Thr5,AzaGly7,Arg(Me)9,Trp10]MS10]"
2,3.1,"Ac-[dY]GNTF[azaGly]L[Arg(Me)]W-NH2 (SMILES CNC(=N)NCCC[C@H](NC(=O)[C@H](CC(C)C)NC(=O)NNC(=O)[C@H](Cc1ccccc1)NC(=O)[C@@H](NC(=O)[C@H](CC(N)=O)NC(=O)CNC(=O)[C@@H](Cc1ccc(O)cc1)NC(C)=O)[C@@H](C)O)C(=O)N[C@@H](Cc1c[nH]c2ccccc12)C(N)=O) [des(1)-Ac-[D-Tyr2,Gly3,Thr5,AzaGly7,Arg(Me)9,Trp10]MS10]"
3,1.4,"Ac-[dY][Thz]NTF[azaGly]L[Arg(Me)]W-NH2 (SMILES CNC(=N)NCCC[C@H](NC(=O)[C@H](CC(C)C)NC(=O)NNC(=O)[C@H](Cc1ccccc1)NC(=O)[C@@H](NC(=O)[C@H](CC(N)=O)NC(=O)[C@@H]1CSCN1C(=O)[C@@H](Cc1ccc(O)cc1)NC(C)=O)[C@@H](C)O)C(=O)N[C@@H](Cc1c[nH]c2ccccc12)C(N)=O) [des(1)-Ac-[D-Tyr2,Thz3,Thr5,AzaGly7,Arg(Me)9,Trp10]MS10]"
4,1,"Ac-[dY][dW][Dap(CONH2)]TF[azaGly]L[Arg(Me)]W-NH2 (SMILES CNC(=N)NCCC[C@H](NC(=O)[C@H](CC(C)C)NC(=O)NNC(=O)[C@H](Cc1ccccc1)NC(=O)[C@@H](NC(=O)[C@H](CNC(N)=O)NC(=O)[C@@H](Cc1c[nH]c2ccccc12)NC(=O)[C@@H](Cc1ccc(O)cc1)NC(C)=O)[C@@H](C)O)C(=O)N[C@@H](Cc1c[nH]c2ccccc12)C(N)=O) [des(1)-Ac-[D-Tyr2,D-Trp3,Alb4,Thr5,AzaGly7,Arg(Me)9,Trp10]MS10]"
5,2.2,"Ac-[dY][Pic(3)]NTF[azaGly]L[Arg(Me)]W-NH2 [des(1)-Ac-[D-Tyr2,Pic(3)3,Thr5,AzaGly7,Arg(Me)9,Trp10]MS10]"
6,3.8,"Ac-[dY][dW]N[dP]F[azaGly]L[Arg(Me)]W-NH2 (SMILES CNC(=N)NCCC[C@H](NC(=O)[C@H](CC(C)C)NC(=O)NNC(=O)[C@H](Cc1ccccc1)NC(=O)[C@H]1CCCN1C(=O)[C@H](CC(N)=O)NC(=O)[C@@H](Cc1c[nH]c2ccccc12)NC(=O)[C@@H](Cc1ccc(O)cc1)NC(C)=O)C(=O)N[C@@H](Cc1c[nH]c2ccccc12)C(N)=O) [des(1)-Ac-[D-Tyr2,D-Trp3,D-Pro5,AzaGly7,Arg(Me)9,Trp10]MS10]"
7,0.7,"Ac-[dY][Pro(trans-4-F)]NTF[azaGly]L[Arg(Me)]W-NH2 (SMILES CNC(=N)NCCC[C@H](NC(=O)[C@H](CC(C)C)NC(=O)NNC(=O)[C@H](Cc1ccccc1)NC(=O)[C@@H](NC(=O)[C@H](CC(N)=O)NC(=O)[C@@H]1C[C@@H](F)CN1C(=O)[C@@H](Cc1ccc(O)cc1)NC(C)=O)[C@@H](C)O)C(=O)N[C@@H](Cc1c[nH]c2ccccc12)C(N)=O) [des(1)-Ac-[D-Tyr2,Pro(4F)3,Thr5,AzaGly7,Arg(Me)9,Trp10]MS10]"
8,0.6,"Ac-[dY][cisHyp]NTF[azaGly]L[Arg(Me)]W-NH2 [des(1)-Ac-[D-Tyr2,cisHyp3,Thr5,AzaGly7,Arg(Me)9,Trp10]MS10]"
9,1.1,"Ac-Y[Hyp]NTF[azaGly]L[Arg(Me)]W-NH2 [des(1)-Ac-[Tyr2,Hyp3,Thr5,AzaGly7,Arg(Me)9,Trp10]MS10]"
